From PMC3706368

Biological target: V5-tagged cdN protein (human) (UniProt Q8TCD5)
Chain of UniProt Q8TCD5 (Q8TCD5 whole entry): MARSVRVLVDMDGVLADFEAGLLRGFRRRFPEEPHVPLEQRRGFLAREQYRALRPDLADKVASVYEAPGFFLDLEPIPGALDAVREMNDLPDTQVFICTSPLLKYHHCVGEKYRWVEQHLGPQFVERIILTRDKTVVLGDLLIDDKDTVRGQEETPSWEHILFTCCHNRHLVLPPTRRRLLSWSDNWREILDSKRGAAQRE

With “myc-tagged full-length NS3/4A protein (natural protein)” the 5'(3')-deoxyribonucleotidase activity (dephosphorylation of dUMP) in lysates of HuH7 cells with stable HCV NS3/4A expression, compared with cells with stable EGFP expression was 70%.
